Laboratory results taken from patent publication US12551542B2, “Polymeric nanoparticles that target liver sinusoidal endothelial cells to induce antigen-specific immune tolerance” (The Regents of the University of California, priority 2019, dated 2026).
No end group written: not given here.

Experiments:
LSECs = experiment: NP-associated FITC-OVA uptake, flow cytometry; assay type: cell-based, mouse
Protocol: Following OVA-FITC labeling, the antigen was encapsulated in NPs as described in Example 1 Materials and Methods. LSECs and KUP5 cells were incubated with FITC-OVA or NP^FITC-OVA for the indicated time periods. After being washed in PBS, the % FITC-OVA^+ cells and the cellular mean fluorescence intensity (MFI) were analyzed in a BD LSRII (IMED) analytic flow cytometer by Flowjo® software. Panels (A, B): Kinetics of NP-mediated antigen uptake in LSECs and KUP5 cells, respectively. Panels (C, D): Histograms depicting the % and MFI of antigen-positive LSECs. Data are expressed as the mean±SEM (n=6); *p<0.05; **p<0.01; ***[…] (one-way ANOVA followed by Tukey's test).
To quantitatively evaluate antigen uptake into cells, OVA was labeled with FITC as previously described. Following the incorporation of FITC-OVA into NPs, LSECs and KUP5 cells were incubated with FITC-OVA or the labeled particles for 24 h. Cells were collected, washed with PBS, and analyzed in a BD LSRII (IMED) analytic flow cytometer. Flowjo software (Ashland, OR) was used to quantify the percentage and mean fluorescence intensity of the FITC-OVA+-labeled cells.

[1] = target: stabilin-1 scavenger receptor on liver sinusoidal endothelial cells (LSECs) (mouse, UniProt Q8R4Y4 26-2571); experiment: cell-based or functional assay
[2] = target: stabilin-2 scavenger receptor on liver sinusoidal endothelial cells (LSECs) (mouse, UniProt Q8R4U0 29-2559); experiment: cell-based or functional assay
mice = experiment: Biodistribution of DyLight680-OVA NPs after IV injection, ex vivo IVIS imaging; design: species or system mouse; conditions: 25 μg OVA in 500 μg NPs per animal, 24 h
Description: Panel (B): Confocal microscopy to show the intrahepatic distribution of free or encapsulated labeled OVA. […] The red and green fluorescence colors represent DyLight680-labeled OVA and isolectin B4 stained LSECs, respectively. Scale bars correspond to 50 μm. Data are expressed as the mean±SEM (n=6); *p<0.05; **p<0.01; ***[…] (one-way ANOVA followed by Tukey's test).
FIG. 17A schematically illustrates two main strategies for inducing immune tolerance. Strategy 1 depicts a liver-targeting nanoparticle for allergen delivery to LSEC in the liver, where allergen processing and presentation to naïve T-cells induce antigen-specific Foxp3^+ Tregs, which are recruited to the site of allergic inflammation in the lung. […] FIG. 17B schematically illustrates the PLGA nanoparticle synthesis process, including carrier loading with cargo (allergen, epitopes, pharmaceutical agents), by a w/o/w double emulsion method combined with solvent removal. […] The red and green fluorescence colors represent Dylight680-labeled OVA and isolectin B4 stained LSECs, respectively. […]
The near-infrared fluorescent dye, DyLight680 (ex=692, em=712), was used to label OVA, which was subsequently encapsulated in the NPs. […] The data were analyzed using Living Image software (PerkinElmer, version 4.5) and were expressed as the fluorescence intensity in the region of interest. […]

Chain of stabilin-1 scavenger receptor on liver sinusoidal endothelial cells (LSECs) (Q8R4Y4 26-2571): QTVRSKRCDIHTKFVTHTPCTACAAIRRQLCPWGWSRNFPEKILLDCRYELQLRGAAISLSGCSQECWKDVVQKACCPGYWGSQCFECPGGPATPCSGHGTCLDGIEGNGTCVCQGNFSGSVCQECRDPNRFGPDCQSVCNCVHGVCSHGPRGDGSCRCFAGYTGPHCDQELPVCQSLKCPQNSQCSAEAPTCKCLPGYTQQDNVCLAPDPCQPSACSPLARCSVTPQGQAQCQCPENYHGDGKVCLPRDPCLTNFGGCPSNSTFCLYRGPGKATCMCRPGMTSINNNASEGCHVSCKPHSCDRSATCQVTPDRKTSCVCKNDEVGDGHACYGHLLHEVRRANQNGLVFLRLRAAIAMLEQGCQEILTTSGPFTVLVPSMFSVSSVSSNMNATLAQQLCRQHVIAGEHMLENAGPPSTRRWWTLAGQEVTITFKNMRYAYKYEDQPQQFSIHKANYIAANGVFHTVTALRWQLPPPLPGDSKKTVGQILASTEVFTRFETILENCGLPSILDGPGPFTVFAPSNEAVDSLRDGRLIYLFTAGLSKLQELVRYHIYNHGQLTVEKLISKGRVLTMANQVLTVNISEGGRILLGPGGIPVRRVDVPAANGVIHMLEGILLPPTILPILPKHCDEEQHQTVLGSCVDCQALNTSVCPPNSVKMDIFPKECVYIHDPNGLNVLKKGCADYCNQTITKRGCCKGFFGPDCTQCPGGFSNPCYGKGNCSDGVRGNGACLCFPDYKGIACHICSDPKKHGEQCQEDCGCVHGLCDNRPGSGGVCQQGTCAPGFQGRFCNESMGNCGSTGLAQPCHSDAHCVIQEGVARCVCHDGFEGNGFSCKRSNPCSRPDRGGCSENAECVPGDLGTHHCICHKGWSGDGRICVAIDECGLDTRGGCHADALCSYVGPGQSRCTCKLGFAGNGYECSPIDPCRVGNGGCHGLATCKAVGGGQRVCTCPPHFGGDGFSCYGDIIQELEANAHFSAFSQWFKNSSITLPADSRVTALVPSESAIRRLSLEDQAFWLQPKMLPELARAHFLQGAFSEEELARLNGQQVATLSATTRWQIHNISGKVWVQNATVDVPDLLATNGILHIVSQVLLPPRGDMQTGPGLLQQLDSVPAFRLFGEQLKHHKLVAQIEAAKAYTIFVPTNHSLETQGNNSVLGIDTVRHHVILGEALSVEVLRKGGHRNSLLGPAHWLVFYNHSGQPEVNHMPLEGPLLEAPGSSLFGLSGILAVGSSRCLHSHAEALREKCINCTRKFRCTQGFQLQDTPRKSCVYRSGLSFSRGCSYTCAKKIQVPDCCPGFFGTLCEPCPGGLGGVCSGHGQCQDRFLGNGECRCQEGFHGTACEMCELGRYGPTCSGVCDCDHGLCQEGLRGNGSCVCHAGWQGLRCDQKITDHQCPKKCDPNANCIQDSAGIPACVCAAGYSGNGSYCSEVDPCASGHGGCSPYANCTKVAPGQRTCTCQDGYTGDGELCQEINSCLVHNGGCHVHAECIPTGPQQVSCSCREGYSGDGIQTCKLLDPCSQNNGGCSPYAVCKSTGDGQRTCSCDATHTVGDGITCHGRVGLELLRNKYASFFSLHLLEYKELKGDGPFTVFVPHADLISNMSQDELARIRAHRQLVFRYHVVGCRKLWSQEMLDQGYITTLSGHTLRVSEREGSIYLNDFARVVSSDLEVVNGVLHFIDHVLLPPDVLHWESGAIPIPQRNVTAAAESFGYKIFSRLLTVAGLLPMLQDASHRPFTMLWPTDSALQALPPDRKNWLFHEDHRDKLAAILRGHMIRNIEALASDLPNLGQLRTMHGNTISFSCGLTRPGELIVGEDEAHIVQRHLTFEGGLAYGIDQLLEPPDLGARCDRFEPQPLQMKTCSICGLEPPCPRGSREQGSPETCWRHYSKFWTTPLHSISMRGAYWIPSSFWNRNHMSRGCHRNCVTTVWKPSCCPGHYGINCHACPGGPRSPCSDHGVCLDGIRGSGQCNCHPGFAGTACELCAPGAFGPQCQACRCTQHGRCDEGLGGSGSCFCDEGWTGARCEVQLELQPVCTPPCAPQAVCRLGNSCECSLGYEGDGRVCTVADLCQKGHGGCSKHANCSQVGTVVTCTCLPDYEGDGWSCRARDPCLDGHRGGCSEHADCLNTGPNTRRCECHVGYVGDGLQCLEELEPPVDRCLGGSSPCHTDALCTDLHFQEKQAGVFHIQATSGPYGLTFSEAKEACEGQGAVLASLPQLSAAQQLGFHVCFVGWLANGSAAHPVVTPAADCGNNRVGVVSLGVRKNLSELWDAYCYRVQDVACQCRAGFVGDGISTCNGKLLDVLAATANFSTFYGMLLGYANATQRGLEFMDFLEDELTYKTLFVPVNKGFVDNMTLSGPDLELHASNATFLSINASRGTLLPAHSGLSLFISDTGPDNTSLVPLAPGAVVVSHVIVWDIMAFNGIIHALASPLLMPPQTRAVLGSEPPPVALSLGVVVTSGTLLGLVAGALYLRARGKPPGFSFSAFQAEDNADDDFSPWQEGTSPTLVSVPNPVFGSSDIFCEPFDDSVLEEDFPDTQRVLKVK
Chain of stabilin-2 scavenger receptor on liver sinusoidal endothelial cells (LSECs) (Q8R4U0 29-2559): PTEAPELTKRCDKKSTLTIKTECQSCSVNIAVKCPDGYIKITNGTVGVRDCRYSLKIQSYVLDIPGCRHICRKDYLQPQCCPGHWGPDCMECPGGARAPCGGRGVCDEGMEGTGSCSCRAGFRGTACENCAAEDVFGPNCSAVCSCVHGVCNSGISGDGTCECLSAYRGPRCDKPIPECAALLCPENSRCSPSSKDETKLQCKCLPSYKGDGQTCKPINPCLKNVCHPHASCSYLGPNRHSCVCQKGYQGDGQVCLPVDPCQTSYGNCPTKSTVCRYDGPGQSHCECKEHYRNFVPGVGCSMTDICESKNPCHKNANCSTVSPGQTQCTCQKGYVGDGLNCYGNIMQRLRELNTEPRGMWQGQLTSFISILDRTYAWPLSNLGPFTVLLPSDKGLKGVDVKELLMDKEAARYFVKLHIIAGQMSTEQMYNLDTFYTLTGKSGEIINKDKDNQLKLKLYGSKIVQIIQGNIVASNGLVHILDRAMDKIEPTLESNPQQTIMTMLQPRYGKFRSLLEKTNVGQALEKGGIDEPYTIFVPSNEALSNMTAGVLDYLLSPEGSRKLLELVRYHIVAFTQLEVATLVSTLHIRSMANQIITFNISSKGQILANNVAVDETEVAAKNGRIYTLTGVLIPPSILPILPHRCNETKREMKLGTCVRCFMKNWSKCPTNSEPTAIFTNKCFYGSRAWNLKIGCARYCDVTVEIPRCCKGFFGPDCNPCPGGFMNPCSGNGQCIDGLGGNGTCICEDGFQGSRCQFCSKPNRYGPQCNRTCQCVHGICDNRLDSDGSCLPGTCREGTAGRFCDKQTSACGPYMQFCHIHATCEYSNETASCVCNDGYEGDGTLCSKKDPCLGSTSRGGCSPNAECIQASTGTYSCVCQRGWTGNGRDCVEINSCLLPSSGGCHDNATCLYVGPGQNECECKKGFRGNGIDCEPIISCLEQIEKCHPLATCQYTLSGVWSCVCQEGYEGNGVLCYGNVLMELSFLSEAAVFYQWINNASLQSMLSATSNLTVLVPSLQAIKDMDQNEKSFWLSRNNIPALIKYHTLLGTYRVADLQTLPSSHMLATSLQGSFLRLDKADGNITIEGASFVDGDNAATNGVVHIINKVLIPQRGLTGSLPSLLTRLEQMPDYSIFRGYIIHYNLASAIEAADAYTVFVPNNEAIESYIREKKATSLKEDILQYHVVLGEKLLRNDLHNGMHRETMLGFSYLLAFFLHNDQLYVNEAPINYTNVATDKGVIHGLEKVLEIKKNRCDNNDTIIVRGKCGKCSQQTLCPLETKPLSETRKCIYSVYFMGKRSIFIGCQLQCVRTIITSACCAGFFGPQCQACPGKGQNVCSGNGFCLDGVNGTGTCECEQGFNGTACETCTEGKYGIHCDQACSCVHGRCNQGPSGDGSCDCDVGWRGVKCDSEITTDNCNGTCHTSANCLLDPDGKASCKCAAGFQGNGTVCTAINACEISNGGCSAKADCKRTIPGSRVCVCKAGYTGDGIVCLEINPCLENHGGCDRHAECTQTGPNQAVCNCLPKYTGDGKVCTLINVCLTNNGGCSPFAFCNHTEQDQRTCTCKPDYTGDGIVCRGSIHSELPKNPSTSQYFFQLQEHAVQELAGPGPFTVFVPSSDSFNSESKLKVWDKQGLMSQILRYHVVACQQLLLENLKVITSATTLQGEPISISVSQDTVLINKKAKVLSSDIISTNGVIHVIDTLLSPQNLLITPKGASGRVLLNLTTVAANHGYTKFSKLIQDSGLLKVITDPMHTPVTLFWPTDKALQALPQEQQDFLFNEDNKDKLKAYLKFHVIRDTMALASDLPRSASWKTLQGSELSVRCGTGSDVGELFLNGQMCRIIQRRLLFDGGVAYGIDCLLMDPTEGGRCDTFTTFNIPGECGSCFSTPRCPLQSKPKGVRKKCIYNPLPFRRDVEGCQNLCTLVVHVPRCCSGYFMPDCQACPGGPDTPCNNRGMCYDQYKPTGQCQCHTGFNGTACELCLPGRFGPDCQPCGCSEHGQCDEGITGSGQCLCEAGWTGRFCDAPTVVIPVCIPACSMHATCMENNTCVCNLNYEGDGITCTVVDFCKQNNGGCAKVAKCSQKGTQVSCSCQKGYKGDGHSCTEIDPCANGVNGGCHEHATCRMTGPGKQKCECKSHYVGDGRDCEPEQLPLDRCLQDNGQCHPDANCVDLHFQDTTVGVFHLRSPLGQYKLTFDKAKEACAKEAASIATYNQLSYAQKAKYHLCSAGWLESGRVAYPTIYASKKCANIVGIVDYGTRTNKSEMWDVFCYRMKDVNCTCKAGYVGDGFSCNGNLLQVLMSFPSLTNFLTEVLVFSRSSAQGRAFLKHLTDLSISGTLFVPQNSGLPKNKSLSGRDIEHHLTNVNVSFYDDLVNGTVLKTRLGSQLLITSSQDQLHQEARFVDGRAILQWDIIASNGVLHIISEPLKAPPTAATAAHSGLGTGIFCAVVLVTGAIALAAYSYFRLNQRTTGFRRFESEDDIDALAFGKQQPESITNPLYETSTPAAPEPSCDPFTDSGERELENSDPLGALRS

FITC-OVA: fluorescein isothiocyanate (FITC)-labeled OVA, not encapsulated
NP-mediated FITC-OVA uptake (OVA fluorescence intensity) (LSECs): No significant uptake

B1: ApoB peptide (ApoBP), RLYRKRGLK, containing a GGC tag, conjugated to the surface of OVA-encapsulating PLGA nanoparticles (peptide)
peptide: RLYRKRGLK
modifications: also: GGC tag at one end, orientation unclear, tag Cys thioether-linked to maleimide (NAEM) on PLGA nanoparticle
percentage of OVA-positive LSECs (flow cytometry, uptake of nanoparticle-encapsulated FITC-OVA) [1]: ~2 fold | percentage of OVA-positive LSECs (flow cytometry, uptake of nanoparticle-encapsulated FITC-OVA) [2]: ~2 fold

B2: non-encapsulated fluorescent OVA: DyLight680-labeled ovalbumin injected free, not encapsulated (protein, UniProt P01012 2-386, looked up)
Ovalbumin: GSIGAASMEFCFDVFKELKVHHANENIFYCPIAIMSALAMVYLGAKDSTRTQINKVVRFDKLPGFGDSIEAQCGTSVNVHSSLRDILNQITKPNDVYSFSLASRLYAEERYPILPEYLQCVKELYRGGLEPINFQTAADQARELINSWVESQTNGIIRNVLQPSSVDSQTAMVLVNAIVFKGLWEKAFKDEDTQAMPFRVTEQESKPVQMMYQIGLFRVASMASEKMKILELPFASGTMSMLVLLPDEVSGLEQLESIINFEKLTEWTSSNVMEERKIKVYLPRMKMEEKYNLTSVLMAMGITDVFSSSANLSGISSAESLKISQAVHAAHAEINEAGREVVGSAEAGVDAASVSEEFRADHPFLFCIKHIATNAVLFFGRCVSP
modifications: DyLight680 label
organ distribution of labeled OVA (IVIS) (mice): kidney
